Test results: patent publication US20260139049A1 (PEDIATRIC IMMUNITY AND HEALTHCARE GUANGZHOU BIOTECHNOLOGY, published 2026)
Each block holds one binder with its values, some of them ahead of it.

How the values were obtained:
human CLDN6 [1] = biological target: T1, human CLDN6 (human, UniProt P56747 1-220); assay: binding to CLDN6-expressing cells; method not given
T1 construct: whole, on cells; four-transmembrane protein; also called claudin-6; HEK293T-CLDN6
T1 sequence (looked up): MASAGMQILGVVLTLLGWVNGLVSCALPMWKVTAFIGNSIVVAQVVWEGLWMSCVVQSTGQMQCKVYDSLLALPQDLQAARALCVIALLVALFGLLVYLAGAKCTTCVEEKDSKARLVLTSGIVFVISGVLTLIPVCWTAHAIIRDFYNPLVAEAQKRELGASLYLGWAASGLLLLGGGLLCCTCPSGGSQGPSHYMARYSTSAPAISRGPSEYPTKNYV

human CLDN6 [2] = biological target: T1, human CLDN6; assay: FACS on HepG2 tumour cells, 5 µg/mL; target on the cells taken as CLDN6
Method: (§1) 50 μL of an antibody to be tested was added to a 96-well plate, then 1×10⁵ cells were added to each well, and incubation was conducted at 4° C. for 1 h. Cells were washed three times with PBS. […] Finally, cells were washed three times with PBS, and signals were read using FACS. A binding capacity of the antibody to each tumor cell was analyzed based on detection data.

human CLDN6 [3] = biological target: T1, human CLDN6; assay: FACS on PA-1 tumour cells; target on the cells taken as CLDN6
Method: as §1

human CLDN6 [4] = biological target: T1, human CLDN6; assay: FACS on HepG2 tumour cells; target on the cells taken as CLDN6
Method: as §1

human CLDN6 [5] = biological target: T1, human CLDN6; assay: FACS on HEK293T-CLDN6 cells
Method: (§2) To detect a binding capacity of a chimeric or humanized antibody to CLDN6, a CLDN6-expressing cell line HEK293T-CLDN6 and a CLDN6-negative control cell line HEK293T were washed three times with PBS. 1×10⁵ test cells and 50 μL of an antibody solution to be tested were added to a 96-well plate, and incubated at 4° C. for 1 h. The cells were then washed three times with PBS. […] Finally, cells were washed three times with PBS, and signals were read using FACS.
(§3) An EC50 value (a concentration of an antibody that binds to half of binding sites at equilibrium) is calculated through nonlinear regression.

human CLDN6 [6] = biological target: T1, human CLDN6; assay: FACS on HepG2 tumour cells; target on the cells taken as CLDN6; remark: listed apart in the source
Method: as §1

human CLDN6 [7] = biological target: T1, human CLDN6; assay: FACS on HEK293T-CLDN6 cells; remark: listed apart in the source
Method: as §2, §3

human CLDN6 [8] = biological target: T1, human CLDN6; assay: FACS on PA-1 tumour cells; target on the cells taken as CLDN6; remark: listed apart in the source
Method: as §1

B1: 51C10-M2 (antibody, human IgG1, kappa, V domains shown)
VH: EVQLQQSGPELVKPGASVKMSCKASGYTFTDYNMHWVKKSHGKSLEWIGYVNPNQGATSYNQKFKGKATLTVNKSSSTAYMELRSLTSEDSAVYNCARWDGYVYYYGLDYWGQGTSVTVSS
VL: DIQMTQSSSYLSVSLGGRVTITCKASDHINNWLAWYQQKPGNAPRLLISGATSLETGVPSRFSGSGSGKDYTLSITSLQTEDVATYYCQQYWSTPYTFGGGTKLEIKR
notes: 51C10H4 with N of NG in heavy-chain CDR2 changed to Q; also called improved antibody 51C10-M2
binding result (human CLDN6 [1]): binds

B2: 51C10-M3 (antibody, human IgG1, kappa, V domains shown)
VH: EVQLQQSGPELVKPGASVKMSCKASGYTFTDYNMHWVKKSHGKSLEWIGYVNPNNGATSYNQKFKGKATLTVNKSSSTAYMELRSLTSEDSAVYNCARWDAYVYYYGLDYWGQGTSVTVSS
VL: DIQMTQSSSYLSVSLGGRVTITCKASDHINNWLAWYQQKPGNAPRLLISGATSLETGVPSRFSGSGSGKDYTLSITSLQTEDVATYYCQQYWSTPYTFGGGTKLEIKR
notes: 51C10H4 with G of DG in heavy-chain CDR3 changed to A; also called improved antibody 51C10-M3
binding result (human CLDN6 [1]): binds

B4: PiH1004 (antibody, human IgG1, kappa, V domains shown)
VH: QVQLVQSGAEVKKPGASVKVSCKASGYTFTDYNMHWVRQAPGQSLEWIGYVNPNNGATSYNQKFKGRATMTVDKSTSTVYMELSSLRSEDTAVYNCARWDGYVYYYGLDYWGQGTLVTVSS
VL: DIQMTQSPSSLSASVGDRVTITCKASDHINNWLAWYQQKPGKVPKLLISGATSLETGVPSRFSGSGSGTDYTLTISSLQPEDVATYYCQQYWSTPYTFGGGTKLEIKR
notes: humanized from 51C10H4; IgG1; also called 51-VH4 + VL3
Geom.Mean (human CLDN6 [2]): 851
EC50 (human CLDN6 [3]): 0.491 µg/mL
EC50 (human CLDN6 [4]): 0.843 µg/mL
EC50 (human CLDN6 [5]): 0.363 µg/mL

B5: PiH2006 (antibody, human IgG1, kappa, V domains shown)
VH: QVQLVQSGAEVKKPGASVKVSCKASGYTFTDYNMHWVRQAPGQRLEWIGYINPNNGATNYNQKFKGRVTITVDTSASTAYMELSSLRSEDTAVYNCARWDGYVYYYGMDYWGQGTLVTVSS
VL: DIQMTQSPSSLSASVGGRVTITCKASDHINNWLAWYQQKPGKAPKLLISGATSLETGVPSRFSGSGSGTDYTFTISSLQPEDIATYYCQQYWNTPYTFGGGTKLEIKR
notes: humanized from 54B5A7; IgG1; also called 54-VH2 + VL4
EC50 (human CLDN6 [6]): 5.84 µg/mL

The remaining lines, values ahead:

binding result (human CLDN6 [1]): binds
B3: 51C10-M4 (antibody, human IgG1, kappa, V domains shown)
VH: EVQLQQSGPELVKPGASVKMSCKASGYTFTDYNMHWVKKSHGKSLEWIGYVNPNNGATSYNQKFKGKATLTVNKSSSTAYMELRSLTSEDSAVYNCARWEGYVYYYGLDYWGQGTSVTVSS
VL: DIQMTQSSSYLSVSLGGRVTITCKASDHINNWLAWYQQKPGNAPRLLISGATSLETGVPSRFSGSGSGKDYTLSITSLQTEDVATYYCQQYWSTPYTFGGGTKLEIKR
notes: 51C10H4 with D of DG in heavy-chain CDR3 changed to E; also called improved antibody 51C10-M4

EC50 (human CLDN6 [7]): 0.897 µg/mL
EC50 (human CLDN6 [8]): 1.17 µg/mL
B6: PiH2007 (antibody, human IgG1, kappa, V domains shown)
VH: QVQLVQSGAEVKKPGASVKVSCKASGYTFTDYNMHWVRQAPGQSLEWIGYINPNNGATNYNQKFKGRATITVDTSASTAYMELSSLRSEDTAVYNCARWDGYVYYYGMDYWGQGTLVTVSS
VL: DIQMTQSPSSLSASVGGRVTITCKASDHINNWLAWYQQKPGKAPKLLISGATSLETGVPSRFSGSGSGTDYTFTISSLQPEDIATYYCQQYWNTPYTFGGGTKLEIKR
notes: humanized from 54B5A7; IgG1; also called 54-VH3 + VL4

Geom.Mean (human CLDN6 [2]): 892
B7: PiH1004-M1 (antibody, human IgG1, kappa, V domains shown)
VH: QVQLVQSGAEVKKPGASVKVSCKASGYTFTDYNMHWVRQAPGQSLEWIGYVNPNNAATSYNQKFKGRATMTVDKSTSTVYMELSSLRSEDTAVYNCARWDGYVYYYGLDYWGQGTLVTVSS
VL: DIQMTQSPSSLSASVGDRVTITCKASDHINNWLAWYQQKPGKVPKLLISGATSLETGVPSRFSGSGSGTDYTLTISSLQPEDVATYYCQQYWSTPYTFGGGTKLEIKR
notes: PiH1004 with G of NG in heavy-chain CDR2 changed to A; also called improved antibody PiH1004-M1
